Experimental data: patent US20260078171A1

Each substance was assayed against SARS-CoV-2 Wild-type (D614G) spike glycoprotein (SARS-CoV-2) (UniProt P0DTC2) (assay: cell-based or functional assay).

Chain of VYD222 (antibody) (VH): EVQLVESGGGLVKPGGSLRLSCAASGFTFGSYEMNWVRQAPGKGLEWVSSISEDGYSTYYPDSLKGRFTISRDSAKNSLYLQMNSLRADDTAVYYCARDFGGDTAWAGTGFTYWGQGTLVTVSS
Chain of VYD222 (antibody) (VL): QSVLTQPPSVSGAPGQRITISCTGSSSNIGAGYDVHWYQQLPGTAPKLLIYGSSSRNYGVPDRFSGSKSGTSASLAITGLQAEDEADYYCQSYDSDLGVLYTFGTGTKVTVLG
Chain of VYD224 (antibody) (VH): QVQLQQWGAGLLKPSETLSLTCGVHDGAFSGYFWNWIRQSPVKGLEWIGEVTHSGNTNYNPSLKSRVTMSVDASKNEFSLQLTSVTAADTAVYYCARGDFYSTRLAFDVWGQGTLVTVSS
Chain of VYD224 (antibody) (VL): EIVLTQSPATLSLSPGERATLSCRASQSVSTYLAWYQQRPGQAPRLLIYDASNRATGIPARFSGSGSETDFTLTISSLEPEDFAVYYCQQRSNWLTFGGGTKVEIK
Chain of VYD223 (antibody) (VH): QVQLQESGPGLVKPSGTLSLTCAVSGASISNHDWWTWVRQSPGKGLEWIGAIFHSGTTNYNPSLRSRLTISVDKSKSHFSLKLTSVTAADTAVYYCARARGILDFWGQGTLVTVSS
Chain of VYD223 (antibody) (VL): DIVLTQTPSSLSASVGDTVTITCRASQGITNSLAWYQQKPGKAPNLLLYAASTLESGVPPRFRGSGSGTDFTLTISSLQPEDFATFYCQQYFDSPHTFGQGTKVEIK
Chain of ADI-58125 (antibody) (VH): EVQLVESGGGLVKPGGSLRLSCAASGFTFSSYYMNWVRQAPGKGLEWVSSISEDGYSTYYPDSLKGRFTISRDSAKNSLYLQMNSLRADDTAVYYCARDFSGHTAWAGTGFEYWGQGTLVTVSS
Chain of ADI-58125 (antibody) (VL): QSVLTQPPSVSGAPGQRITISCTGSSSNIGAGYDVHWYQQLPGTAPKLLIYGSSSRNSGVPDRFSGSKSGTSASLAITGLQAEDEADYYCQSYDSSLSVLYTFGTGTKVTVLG

Substance | IC50, authentic virus neutralization [µg/mL] | IC90, authentic virus neutralization [µg/mL] | IC50, lentivirus-based pseudovirus neutralization [µg/mL]
ADI-58125 (antibody) | 0.052 | 0.192 | 
CoV2-2130 (antibody) | 0.016 | 0.074 | 
LY-CoV1404 (antibody) | 0.021 | 0.09 | 
VYD223 (antibody) | 0.012 | 0.014 | 
VYD222 (antibody) | 0.033 | 0.193 | 0.03
VYD224 (antibody) | 0.01 | 0.037 | 0.03
